For orientation: Kd means the free concentration of one partner at which half of the binding sites on the other are occupied at equilibrium, for simple one-to-one binding. A low value points to a tighter complex. A word on the koff: it is a measure of how fast the partners let go of each other. High values mean a short-lived complex, low ones a long-lived complex. By kon is commonly meant the second-order rate constant of association. The low end stands for slow association, the high end for fast association. The IC50 is the concentration that inhibits the measured activity by half. Read a high IC50 as lower potency. As usually defined, the EC50 is the concentration giving half of the maximal effect.

Positions count from the first letter of the chain named. Names and notes keep the numbering of the source.

The record followed here is US20260226131A1 (SHANGHAI INSTITUTE OF MATERIA MEDICA CHINESE ACADEMY OF …, published 2026).

For assay [1], the target named is IGF-1R-His tag (Sino Biological), human insulin-like growth factor 1 receptor (human) (UniProt P08069). Kind of assay: BLI (Octet), IGF-1R-His captured on Ni-NTA probe, 1:1 fit.
The target in assay [2] is T1, human insulin receptor isoform B (hIRB), membranes of CHO cells overexpressing hIRB (human, UniProt P06213 28-1382).
T1 construct: whole, on cells; The assay used cell membrane preparations
Kind of assay: competition with [125I]-insulin, CHO-hIRB membranes (SPA).

Assay [3] deals with T2, human insulin receptor isoform A (hIRA), membranes of CHO cells overexpressing hIRA (human, UniProt P06213-2 28-1370).
T2 construct: whole, on cells; The assay used cell membrane preparations
Kind of assay: competition with [125I]-insulin, CHO-hIRA membranes (SPA).

In assay [4] the target is T3, human insulin receptor extracellular domain protein (hIRB-ECD, Sino Biological Inc.) (human, UniProt P06213 28-956).
T3 construct: extracellular domain; Bought protein coated on the ELISA plate
Kind of assay: ELISA, coated hIRB-ECD, anti-human IgG HRP detection. For orientation: An ELISA detects its analyte on a solid surface through an enzyme-linked reagent.

In assay [5] the target is T4, IGF-1R-His tag (Sino Biological), human insulin-like growth factor 1 receptor (human, UniProt P08069 31-932, limits assumed).
T4 construct: Bought recombinant protein captured on Ni-NTA probes; also called His-tagged IGF-1R protein; not shown: His tag
Kind of assay: BLI (Octet), IGF-1R-His captured on Ni-NTA probe, 1:1 fit. On the technique in general: Biolayer interferometry detects binding as a change in optical thickness at a sensor tip.

Take “glargine insulin (Lantus, Sanofi) (ligand)”: in assay [1], the dissociation constant (Kd) turned out to be 764 nM, the koff stood at 0.0192 s⁻¹ and the kon stood at 25100 M⁻¹ s⁻¹.

B1: Insulin-Fc fusion protein of Example 1 (B27E+A3-A+A21G) (Fc fusion)
chain: FVNQHLCGSHLVEALYLVCGERGFFYEPKTGGVGGGGIAEQCCTSICSLYQLENYCGGGGGSGGGGSGGGGSGGGGSERKSSVESPPSPAPPVAGPSVFLFPPKPKDTLMISRTPEVTCVVVDVSQEDPEVQFNWYVDGVEVHNAKTKPREEQFNSTFRVVSVLTVLHQDWLNGKEYKCKVSNKGLPSSIEKTISKTKGQPREPQVYTLPPSREEMTKNQVSLTCLVKGFYPSDIAVEWESNGQPENNYKTTPPMLDSDGSFFLYSKLTVDKSRWQQGNVFSCSVMHEALHNHYTQKSLSLSLG
Regarding B1, in assay [2], the IC50 is 509 nM and the “Maximum Receptor Binding Activity (%) Relative to RHI” value was determined as 74.3%. In assay [3], the IC50 was determined as 102 nM and the “Maximum Receptor Binding Activity (%) Relative to RHI” value is 78.7%. In assay [4], the EC50 was 160 nM. In assay [5], this molecule had a Kd of 6490 nM, a koff of 0.00336 s⁻¹ and an association rate constant (kon) of 518 M⁻¹ s⁻¹.

B2: Insulin-Fc fusion protein of Example 7 (B25-T+B27-E A3-A+A21G) (Fc fusion)
chain: B1 chain with F25T
As for B2, in assay [4], the response was half-maximal at 699 nM (EC50).

B3: Insulin-Fc fusion protein of Example 5 (B5-A+A21G) (Fc fusion)
chain: B1 chain with H5A, E27T, A39V
Turning to B3, the EC50 in assay [4] was found to be 160 nM.

B4: Insulin-Fc fusion protein of Example 6 (B16-A+A3-A+A21G) (Fc fusion)
chain: B1 chain with Y16A, E27T
Regarding B4, the EC50 in assay [4] was found to be 445 nM.

B5: Insulin-Fc fusion protein of Example 8 (des B27-30+A3-A+A21G) (Fc fusion)
chain: FVNQHLCGSHLVEALYLVCGERGFFYGGVGGGGIAEQCCTSICSLYQLENYCGGGGGSGGGGSGGGGSGGGGSERKSSVESPPSPAPPVAGPSVFLFPPKPKDTLMISRTPEVTCVVVDVSQEDPEVQFNWYVDGVEVHNAKTKPREEQFNSTFRVVSVLTVLHQDWLNGKEYKCKVSNKGLPSSIEKTISKTKGQPREPQVYTLPPSREEMTKNQVSLTCLVKGFYPSDIAVEWESNGQPENNYKTTPPMLDSDGSFFLYSKLTVDKSRWQQGNVFSCSVMHEALHNHYTQKSLSLSLG
B5 yielded a half-maximal effective concentration (EC50) in assay [4] of 314 nM. This EC50 and that of the molecule before are within 1.5-fold of each other.
